Numbering of substitutions follows the chain as printed.
B1: anti-CD3 FlicAb ID 304703 (SEQ ID NO:39) (antibody, V domains shown)
VH: QLQLQESGPGLVKPSQTLSLTCTVSGGSISSGGHYWSWIRQHPGKGLEWIGYIHYSGSTYYNPSLKSRVIISVDTSKNQFSLKLRSVTAADTAVYYCARWRHDIFAAYPYYYYGMDVWGQGTLVTVSS
VL: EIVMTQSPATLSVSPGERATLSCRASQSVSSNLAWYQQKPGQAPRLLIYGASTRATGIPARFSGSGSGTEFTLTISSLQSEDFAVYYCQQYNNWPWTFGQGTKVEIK
notes: fully human IgG1 with the fixed kappa light chain
B2: anti-CD3 FlicAb ID 313306 (SEQ ID NO:1) (antibody, V domains shown)
VH: B1 VH with T23S, S30R, Y55H, V94I, A106T, A107T
VL: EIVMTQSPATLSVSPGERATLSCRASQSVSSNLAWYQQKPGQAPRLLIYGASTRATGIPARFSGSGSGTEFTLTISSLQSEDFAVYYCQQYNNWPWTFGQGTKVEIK
notes: fully human IgG1 with the fixed kappa light chain; also called αCD3_F1F
B3: anti-CD3 FlicAb ID 313329 (SEQ ID NO:6) (antibody, V domains shown)
VH: B1 VH with Q16E, Y55H, Y60N, V69I, I70T, L84V, R85S
VL: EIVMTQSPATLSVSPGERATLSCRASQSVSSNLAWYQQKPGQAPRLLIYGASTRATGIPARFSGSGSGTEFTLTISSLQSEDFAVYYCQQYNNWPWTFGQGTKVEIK
notes: as for B1

molecular target: T1, cynomolgus CD3 (cynomolgus, UniProt Q95LI5 22-198; Q95LI8 22-171); test: flow cytometry, parental monospecific anti-CD3 on cyno T-cells
T1 construct: Rats were immunised with cynomolgus CD3-epsilon/delta constructs; also called CD3 protein of Cynomolgus macaque; non-human primate CD3 proteins
T1 sequence (Q95LI5 22-198, chain 1 of 2): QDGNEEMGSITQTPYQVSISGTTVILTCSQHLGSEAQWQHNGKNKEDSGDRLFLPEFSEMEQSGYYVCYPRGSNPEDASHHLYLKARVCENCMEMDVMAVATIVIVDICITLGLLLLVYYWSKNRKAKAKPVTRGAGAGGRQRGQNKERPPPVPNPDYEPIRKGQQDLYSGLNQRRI
T1 sequence (Q95LI8 22-171, chain 2 of 2): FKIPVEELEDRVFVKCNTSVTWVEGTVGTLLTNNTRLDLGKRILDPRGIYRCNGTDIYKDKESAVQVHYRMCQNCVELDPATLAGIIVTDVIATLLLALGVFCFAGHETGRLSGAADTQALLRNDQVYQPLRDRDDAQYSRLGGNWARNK

Binder | Cyno T-cell bind (MFI)
B1 | 26.2
B2 | 71.7
B3 | 17.4
